Source: paper PMC12685063

Target: Shigella flexneri LptDE complex (SfLptDE), His6 tag on LptE (Shigella flexneri)
Test: SEC

In the case of “receptor binding protein (RBP) of the small siphophage Oekolampad (bas018) (natural protein)”, the percent RBP (Oeko) binding (complex formation after 48 h, band densitometry against LptE) is reported as 15 to 35%.
